Target: the molecule itself
Experiment: native gel or EMSA; native PAGE, continuous 7.5% polyacrylamide gel, non-reducing and non-denaturing; samples in 50 mM Tris-HCl, 100 mM NaCl pH 7.4; running buffer 30 mM beta-alanine, 20 mM lactic acid pH 3.8, 180 V, 2 h, reverse polarity; markers bovine albumin and horse ferritin

Row | Protein | stoichiometry N | binding result
1 | reduced rat peroxiredoxin 6 (Cys47-SH) (enzyme, UniProt O35244 1-224, looked up, Peroxiredoxin 6, rat, UniProtKB O35244, 224 amino acids as in the cDNA, without any vector derived residues; Kept reduced by 1 mM DTT in 50 mM Tris-HCl, 100 mM NaCl pH 7.4; also called reduced Prdx6; rPrdx6; source: reduced with 1 mM DTT; not shown: intein tag, C-terminal, cleaved) MPGGLLLGDEAPNFEANTTIGHIRFHDFLGDSWGILFSHPRDFTPVCTTELGRAAKLAPEFAKRNVKLIALSIDSVEDHFAWSKDINAYNGAAPTEKLPFPIIDDKDRDLAILLGMLDPAEKDEKGMPVTARVVFIFGPDKKLKLSILYPATTGRNFDEILRVVDSLQLTASNPVATPVDWKKGESVMVLPTLPEEEAKQLFPKGVFTKELPSGKKYLRYTPQP | 2 | 
2 | hyperoxidized rat peroxiredoxin 6 (C47 sulfinic acid or sulfonic acid) (enzyme, UniProt O35244 1-224, looked up, C47 sulfinic acid or sulfonic acid (Cys47-SO2H or Cys47-SO3H), Peroxiredoxin 6, rat, UniProtKB O35244, 224 amino acids as in the cDNA, without any vector derived residues; Cys47 hyperoxidized by H2O2; Same purified protein as m1, treated with 500 uM H2O2 in 50 mM Tris-HCl, 100 mM NaCl pH 7.4; also called hyperoxidized Prdx6; oxidized Prdx6; source: incubated with 500 uM H2O2 at room temperature for 30 min to 1 h; not shown: intein tag, C-terminal, cleaved) MPGGLLLGDEAPNFEANTTIGHIRFHDFLGDSWGILFSHPRDFTPVCTTELGRAAKLAPEFAKRNVKLIALSIDSVEDHFAWSKDINAYNGAAPTEKLPFPIIDDKDRDLAILLGMLDPAEKDEKGMPVTARVVFIFGPDKKLKLSILYPATTGRNFDEILRVVDSLQLTASNPVATPVDWKKGESVMVLPTLPEEEAKQLFPKGVFTKELPSGKKYLRYTPQP |  | binds

From paper PMC6406459, “Hyperoxidation of Peroxiredoxin 6 Induces Alteration from Dimeric to Oligomeric State” (Antioxidants, 2019)
